We go through 34 sequences from a protein production outcome set (Wang et al. 2014).

The nature of the data set: label from the status in PepcDB records.
In the case of “NDALRVMAGDLQRSEEKFRSMTDAAHDAVFMLNNEGKIVYRNTAAETLFGFSREEYGDQLFWELISPEFADFNIHDVCEMMPDEALPDFNSETRVRQIEGLRKDGSLVPIEISRGCVHIESVHHTVVIARDIT”, the protein production result is “failed”.
For “NFATGTIATDPLNDSQVAVIASISKEMPGISISTSWDRKVLETSLSSIVGSVSSEKAGLPAEEAEAYLKKGYSLNDRVGTSYLEKQYEETLQGKRSVKEIHLDKYGNMESVDTIEEGSKGNNIKLTID” the value was “failed”; for “NFNPPTRRNWESNYFGMPLQDLVTAEKPIPLFVEKCVEFIEDTGLCTERLYRVSGNKTDQENIQKQFVQDHNINLVSMEVTVNAVAGALKAFFADLPDPLIPYSLHPELLEAAKIPDKTERLHALKEIVKKFHPVNYDVFRYVITHLNRVSQQHKINLMTADNLSICFGQPLMRPDLKSMEFLSTTKIHQSVVETFIQQCQFFFYNGEIVETTNIVAPPPPSNPG”, “failed”; for “NFVPGMEFSMADASSIAIIGGADGPTAIFLASQLSPDLLGAIAVAAYSYMALVPIIQPPIMKALTTPEERKIKMAQLRHVGKTEKIVFPLV”, “failed”.
Regarding “NGSERGVLLSVIDRTEERHAKGLRRQVDHRFDKLVGTISEGVLLMDDTGVFRDGNEAAQNILGRSLDEIIGSRFDDDIWNGLREDGSPLPNVEFPFWRAYVEREPVQEEVMGVYPPDAPPRWIRVNAQPLFRSGQEAPYAVLVSFDDITDERLKEEALQTSRDLLSSVLSSSL”, the protein production result was “failed”.
Take “NHSHSLAVIGSRNATQYTSQSLNYLFPSFRQLNMAIVSGLARGADSVAHQTALKYLLPTIGVLGFGHCYHYPKATLNLRTKVERNGLVISEYPPFSPISKHKFPERNRLISGLSRGVLITEAEERSGSQITIDCALEQNRNVYVLPGSMFNKMTKGNLRRINEGAQVVIDESSILYDYLF”: the protein production entry is on record as “failed”.
With “NIDLDVQNMAQNALKFGYDEIVKRDKDANLSTLNGAMVVVNHQSGDVLALVGGVDYEKSNYNRATQSMRQPGSSFKPFVYQVAINLGYSPMSEIADISRIFEGGAGNNEDWKPKNEGGKFLGLITLKEALTRSRNLATINLALDMGLDVLYSKLMEFGFKDIPPNLSIVLGSFGISPLEYSKFYTMFGNYGTIKDPQIIRQVQDKTGKTIMEFNSNERKVSDEAQSFLVLDMMRNVVEKGTGRNARVKDIEIAGKTGTTNKSVDAWFCGLTPEIEAIIWYGNDNNKPMRYTEGGARTAAPVFREFLTQYIEKFPDTTR”, the protein production result is “failed”.
As for “NIEQLSQSLEHMANQAATLDRQRGEHHVPLFDERLFSCRSRLLTPCVKEAKSTLDAIIREQNENKLTALRAEYLTERLVAQIGAIQREISTTKIRKNEIKHSSHFRKPINVLYQELAQHQEWARRLREMVLEKERAVETAPSFMRAEAQKVLLATEQRLARCEAALLKLENQITHREK”, the protein production result was “failed”.
As to “NKKIYVGMTADIMHPGLIHIIHEATKYGDVIVGLLTDKAIAEHKRLPYLTYDQRKEVVENIKGVCEVVPQEDWSYVPNLEKLKPDYIIHGDDWKTGPLREVREQVFEVMNAQGGKVIEIPYTRGINSSSLDKDIKAIGT”, the protein production result is recorded as “failed”.
Regarding “NKYNKIANELIKIIGEDNIISITHCATRLRVMVKDREIINDKKVEKVDEVKGVFFTSGQYQIILGTGIVNKVYAEVEKMGLKTLSKKEQDEL”, the protein production result is “not failed”.
Consider “NLNAIQNFGAMNILCTDKTGTLTCDKIVLEKYINADGSDDHSRRILRHAFLNSYFQTGLKNLMDKAILAHVREENLEHLTEGYTKIDEIPFDFSRRRMSVVIEDQQGKRQIITKGAVEEMLNICSHAEFNGQVYELTDKLRSKAKRISDDMNRNGMRVLAIAQKSFISKARDFAVTDEDEMVLIGYLAFLDP”, for which the protein production result was “failed”.
For “NLNSIQNFGAIDILCTDKTGTLTQDKVVLEYHLNVNGEDDTRVLRHAYLNSYFQTGYKNLMDLAIIHKTEEEEAADSRLIDLSENYVKVDEIPFDFTRRRLTTVVQDNKGKTQMVTKGAVEEMLSICAFAECNGGVQPLTDDVRYRILETVDNLNDKGFRVLAIAQKSNPSPIGAFGVKDECDMVLIGYLAFLDP” the value was “failed”.
As for “NNLFVYCEIEDGIVADVSLELLTKGRSLANQLGCQLEAVVAGTGLKDIEKQILPYGVDKLHVFDGEGLYPYTSLPHTSILVNLFKEEQPQICLMGATVIGRDLGPRVSSALTSGLTADCTSLEIGDHEDKKEGKVYKNLLYQIRPAFGGNIVATIVNPEHRPQMATVREGVMKKAILAADYKGEVIHHDVKKYVADTDYVVKVIERHVEKAKNN”, the protein production entry is listed as “failed”.
For “NQPKRALRYNKRFMGDRRYMSFWSWLTTGNFVNKEFSYYKVPMELDVFDQDAFAESGVPFYVVATDIKTGKPDYIKIDHVFEQMEALRASSALPLVSEIVEYKGKRYMDGGLADSLPI” the value was “failed”.
For the sequence “NQTRLNKLQKTLVDKQIDFAFISDYKTIQYITGFGSNPYERILAMIVFADKDPFIFAPALEVEVVKSVGWPYDLYGYQDNEDGLEMIYDHIKERSANPKKIATEQGNLTLSRFNRLQAAFPDADYSFNLTPVIEHQR”, the protein production result is listed as “not failed”.
Regarding “NRWITRPKFTHFDLHTLNWDLCLTQANHKSGLALDMLRMLLDSLPQTVSAIEAALSQNDQVTMLSTIHKLHGASCYCGVPTTQRLCQEIESALKREARVEDLEPEILELLDELTKVESAAKQVLSQLSAEITDDQKNGLL”, the protein production entry is “failed”.
For “NSESKSTPKRLHVSNIPFRFRDPDLRQMFGQFGKILDVEIIFNERGSKGFGFVTFENSADADRAREKLHGTVVEGRKIEVNNATARVMTN”, the protein production entry is “not failed”.
For “NYDPFVRHSVTVKADRKTAFKTFLEGFPEWWPNNFRTTKVGAPLGVDKKGGRWYEIDEQGEEHTFGLIRKVDEPDTLVIGWRLNGFGRIDPDNSSEFTVTFVADGQKKTRVDVEHTHFDRMGTKHAKRVRNGMDKGWPTILQSFQDKIDEEGAKK” the value was “not failed”; for “PAIDYKTAFHLAPIGLVLSRDRVIEDCNDELAAIFRCARADLIGRSFEVLYPSSDEFERIGERISPVMIAHGSYADDRIMKRAGGELFWCHVTGRALDRTAPLAAGVWTFEDLSATRRVA”, “not failed”; for “PDGPTQLRALNLTEGFAVLHWKPPQNPVDTYDIQVTAPGAPPLQAETPGSAVDYPLHDLVLHTNYTATVRGLRGPNLTSPASITFTTGLEAPRDLEAKEVTP”, “not failed”.
In the case of “PDHGKAEWFRGADGATLRAATFFPAGPARGSVVLSPGRSEPLEKYFEVVDDLLARDFAVLLHDWRGQGLSARALPDRLKGHARGFKTFVSDYEALLDAFETRMPKPWIAVSHSMGGCLTTLALAQGETRFAAAVLSAPMLGLNTAGVPPWLARPLAFVMSRVGLAGEYVQTPYDPLTQTFQGDGLTHDETRYDRYQAQLRAHPEIALGGMTWGWADFAISACAWLRRSKSVEAIAIPVIILGAELDNRVLNADSESIARRIPKGRYVEVPGAFHEILVETDARRALFWQAFDE”, the protein production result is listed as “failed”.
The result for “PDIGTFTVRPLDPTRDAELLHGWVTHPKSAFWMMQEARLHDVEREYMAIAASEYHDAFLGLLDDEPVFLMEKYDPAHVELVGLYEPEPGDVGMHFLVAPTDTPVHGFTRAVITAVMEHLFADPATRRVVVEPDVGNKAVHALNEAVG” reads “failed”; that for “PDLYNHAIVIGYGRVGSMLAQLLQSRHVPLLVIDDNSEHVLKAHAAGIPAIRGSAAADLVLAEAHPERAKIAVLAIPQPLEAGEILAKLRALNPELTLVARAQNDAEVKHLLGHGADATVVAEHEMAHSLAEMVLSSTNHPNSTRLQPAIA”, “failed”.
For the sequence “PDVSVQEMVSAYTTFVNKGIRVNPLPITRIEDQYGNVVAQFSPNMVEVLPPDAAYKMLYMLKSVVDGGTGSRLRYRYGFKLDMGGKTGTTQNNSD”, the protein production entry was “failed”.
For “PEEQRQKLPDITAADPLEYKKQLLKLAISRIVFMRRFIADSLYYLPDVFFVTDKDNNIILLNKAAENLTAELGAQYHYRMPISTILNHLHNEEGHRINFDQVRNNEINSQCYAENGRAFDLRIAACRQVINQPDGWLIMLIDISAVKSAEEQRQRILHLLSHDMRSPQISILALIDRFSRTSC”, the protein production entry is “failed”.
With “PFCAMENQVLVIRIKIPNSGAVDWTVHSGPQLLFRDVLDVIGQVLPEATTTAFEYEDEDGDRITVRSDEEMKAMLSYYYSTVMEQQVNGQLIEPLQIFPR”, the protein production result was “not failed”.
For “PGSTDFNGALILGLGIDLEKAVGWKNAFFEVEGLQYNGQPVNFAAGSVQGYNSIEAGPPLNRTELYQLWLNQTFLDNRLSFRVGKLIPSMNFGYVGRPFVTQTNPQLFTSTTGLIYTPVFVGPAMLGFIPGYYNSAFGLYGSWKSWGAPGDNPATPNGWYTQAGIYDGRGAQGVQTGLTWPNFSGALFSVAEVGGTWTPYADDPATGWGSVAVGGWRQSGPLTAPGGAFEAQTGGMYAYLVQKLGKFRDSEDQNGIVGFVQGGWNSSSTALMHSSLGFGLTFIAPFGDRPLDSYGFGFSWARLNANPLAGYGFNSYETMIQLYAQYHLVGNLFIQPVLTVLPTPGSGGAGAPSVSGTVQLTFPF”, the protein production result was “failed”.
For “PLGVSAAGALDRASLRRANRLVGNASSAAAIESVNGGLTVEAVGDQVIAVTGAPTTLTIESPSWVGSDDDDGGARPGGKRTVPMAAPFALLDGELLTLGAPESGFRNYVAIRGGVDAPEVLGSRSADTMSGIGPAPLAIRQVLATGEQTASTAVGAPELQPDFPGAGVTVLDVVPGPRADWFDQEALDSLCNQEWLVTPQSNRVGMRLDGKPLERTREGELPSEGTMAGALQIPPAGLPVLFLADHPITGGYPVIGVVRDEHLDRAAQVPIGGRIRFRLVPDSADFTTTTTKTPEK”, the protein production result was “not failed”.
On to “PLSFSLLPATRDDIAMIVDRKRAQIARTHQYDVFACGWTVTLLERLVDASAEDFGLRTATLRAGGRVVAAELGLLSEGRYHLWLPIYDPEFARYSPGALMTLDTLEALAGLGVSRVDFGVDAD”, for which the protein production result is “failed”.
Regarding “PNEKFCFEGFLPQKKGRMTKLKSLVDEHRTMVFYESPHRLLKTLTQFAEYFGPERQVSVSREISKIHEETVRGTLSELIEHFTATDPRGEIVIVLAGIDD”, the protein production result is recorded as “not failed”.
As for “PPAAVGPWDDILAPLYRYTRARARELAETRETMQSMLAAAQALPDGVVTLNEDFQIDWANRMARRHLGLRLPADRGHNLLNLLRAPEFVAYAHRGHWPEPILVRLSLNGQERVMMIHLAGYAS”, the protein production entry is “failed”.
Regarding “PPEAYSLDTAIFVLETRDYRLSDVKEIDSYGDVEMKGKVAVFETEYGPVFLYVYKGEEAKKIWKKLNGRAGFVSIRSVLDLPNMGKFSTVSNGKKIVAWWRKNWLFIVEGKNGVEEFVKHVYRVYEEMKQ”, the protein production result was “not failed”.
Regarding “PPLYVPEQLVVHKETHQAHVMIGSRGYNAYDDKRTALYLLNNILGGPGMNSRLNVSLRERRGLVYTVESNLTSYTDTGAFCIYFGTDPEDVDTCLKLTYKELKRMRDVKMTSSQLMAAKKQLIGQIGVASDNNENNALGMAKTFLHYNKYESSESVFRRIEALTAEGLLEVANEMFAEEYLSTLIY”, the protein production result was “failed”.
For “PQALEFEYMRWIATGARAFIDAHQDASKLRITHLGGGACTMARYFADVYPQSRNTVVELDAELARLSREWFDIPRAPRVKIRVDDARMVAESFTPASRDVIIRDVFAGAITPQNFTTVEFFEHCHRGLAPGGLYVANCGDHSDLRGAKSELAGMMEVFEHVAVIADPPMLKGRRYGNIILMGSDTEFF” the value was “failed”.
